Assay results from PMC6504076, “An in vivo half-life extended prolactin receptor antagonist can prevent STAT5 phosphorylation” (PLoS ONE, 2019).

Experiments:
[1] = molecular target: mouse serum albumin (mouse) (UniProt P07724); assay: SPR; Biacore 3000; mouse serum albumin immobilized on CM5 chip (approx. 800 RU); dilution series of ABD-PrlRA injected; 25°C, 40 μl/min; 1:1 Langmuir model
[2] = molecular target: prolactin receptor (PrlR), extracellular domain (UniProt P16471); assay: SPR; Biacore 3000; PrlR immobilized on CM5 chip (approx. 300 RU); dilution series of analyte injected; 25°C, 40 μl/min; PBS with 0.05% Tween-20; 1:1 Langmuir model
[3] = molecular target: prolactin receptor (PrlR), extracellular domain (UniProt P16471); assay: SPR; Biacore 3000; extracellular domain of PrlR immobilized; ABD-PrlRA dilution series with HSA added to 400 nM, incubated 4 h at 4°C; PBS with 0.05% Tween-20 and HSA as running buffer; 25°C, 40 μl/min; 1:1 Langmuir model (called an approximation)
[4] = molecular target: prolactin receptor (PrlR), extracellular domain (UniProt P16471); assay: as above; remark: listed apart in the source
[5] = molecular target: T1, prolactin receptor (PrlR), extracellular domain (UniProt P16471 25-234); assay: SPR; Biacore 3000; PrlR immobilized on CM5 chip (approx. 300 RU); dilution series of analyte injected; 25°C, 40 μl/min; PBS with 0.05% Tween-20; 1:1 Langmuir model; conditions: both partners purified
T1 construct: prolactin receptor, extracellular domain, from Sino Biological; No catalogue number printed; source: bought: Sino Biological
T1 sequence (looked up): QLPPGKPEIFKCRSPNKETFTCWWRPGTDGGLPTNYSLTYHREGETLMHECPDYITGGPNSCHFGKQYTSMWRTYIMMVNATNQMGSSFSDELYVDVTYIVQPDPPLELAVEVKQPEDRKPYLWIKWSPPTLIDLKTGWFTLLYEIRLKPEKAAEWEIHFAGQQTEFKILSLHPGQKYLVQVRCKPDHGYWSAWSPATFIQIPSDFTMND

[6] = molecular target: T1, prolactin receptor (PrlR), …; assay: as above; conditions: both partners purified; remark: listed apart in the source

Chain of mouse serum albumin (mouse) (P07724 25-608): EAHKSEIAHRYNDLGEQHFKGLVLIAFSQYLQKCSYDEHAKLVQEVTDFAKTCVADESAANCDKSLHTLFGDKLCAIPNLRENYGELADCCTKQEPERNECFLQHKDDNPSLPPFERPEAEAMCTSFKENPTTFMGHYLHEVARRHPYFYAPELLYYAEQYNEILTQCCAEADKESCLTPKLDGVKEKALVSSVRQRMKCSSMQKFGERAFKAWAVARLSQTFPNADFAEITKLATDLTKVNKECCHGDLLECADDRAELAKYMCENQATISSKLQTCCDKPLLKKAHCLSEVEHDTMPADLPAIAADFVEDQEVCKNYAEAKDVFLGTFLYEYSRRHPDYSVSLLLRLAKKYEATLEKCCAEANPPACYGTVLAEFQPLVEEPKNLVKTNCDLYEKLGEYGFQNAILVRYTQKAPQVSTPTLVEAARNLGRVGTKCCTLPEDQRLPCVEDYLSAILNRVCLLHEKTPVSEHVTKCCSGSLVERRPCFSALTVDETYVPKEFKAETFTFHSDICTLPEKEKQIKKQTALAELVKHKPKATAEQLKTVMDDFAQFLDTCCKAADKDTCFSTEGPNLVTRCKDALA

“ABD-PrlRA (fusion of an N-terminal albumin binding domain ABD035 and the prolactin receptor antagonist PrlRA) (from UniProt P01236 29-227)” showed a Kd [1] of 0.38 nM, a koff [1] of 0.0012 s⁻¹ and a kon [1] of 3.1e+06 M⁻¹ s⁻¹. For the same molecule, the Kd [2] was 2.3 nM, the koff [2] was 0.00074 s⁻¹ and the kon [2] was 330000 M⁻¹ s⁻¹.

With “complex of HSA and ABD-PrlRA (from UniProt P02768 25-609; P01236 29-227)” the Kd [3] was 21 nM, the koff [3] was 0.00078 s⁻¹ and the kon [3] was 39000 M⁻¹ s⁻¹. For the same molecule, the Kd [4] was 23 nM.

B1: Prolactin (Prl*), commercially obtained (ligand, UniProt P01236 29-227, looked up)
chain: LPICPGGAARCQVTLRDLFDRAVVLSHYIHNLSSEMFSEFDKRYTHGRGFITKAINSCHTSSLATPEDKEQAQQMNQKDFLSLIVSILRSWNEPLYHLVTEVRGMQEAPEAILSKAVEIEEQTKRLLEGMELIVSQVHPETKENEIYPVWSGLPSLQMADEESRLSAYYNLLHCLRRDSHKIDNYLKLLKCRIIHNNNC
notes: prolactin from Sino Biological; No catalogue number printed; source: bought: Sino Biological
Molecule B1 has a Kd [5] of 23 ± 4 nM.

B2: prolactin (Prl), produced in house (ligand, human)
chain: MGSSLPICPGGAARCQVTLRDLFDRAVVLSHYIHNLSSEMFSEFDKRYTHGRGFITKAINSCHTSSLATPEDKEQAQQMNQKDFLSLIVSILRSWNEPLYHLVTEVRGMQEAPEAILSKAVEIEEQTKRLLEGMELIVSQVHPETKENEIYPVWSGLPSLQMADEESRLSAYYNLLHCLRRDSHKIDNYLKLLKCRIIHNNNC
notes: prolactin, human; the Prl gene itself is not separately called human; also called in house produced Prl
Molecule B2 has a Kd [6] of 8.4 ± 0.2 nM, a koff [6] of 0.0012 s⁻¹ and a kon [6] of 140000 M⁻¹ s⁻¹.

B3: prolactin receptor antagonist PrlRA (ligand, human)
chain: MGSSRSQVTLRDLFDRAVVLSHYIHNLASEMFSEFDKRYTHGRGFITKAINSCHTSSLATPEDKEQALQMNQKDFLSLIVSILRSWNEPLYHLVTEVRGMQEAPEAILSKAVEIEEQTKRLLERMELIVSQVHPETKENEIYPVWSGLPSLQMADEESRLSAYYNLLHCLRRDSHKIDNYLKLLRCRIIHNNNC
In the case of B3, the Kd [6] is reported as 3.4 ± 0.5 nM, the koff [6] is reported as 0.00088 s⁻¹ and the kon [6] is reported as 260000 M⁻¹ s⁻¹.
